Laboratory results from IntAct's records for PubMed 10779557.

B1: Lymphokine-activated killer T-cell-originated protein kinase (Homo sapiens), Q96KB5 (parent)
chain: MEGISNFKTPSKLSEKKKSVLCSTPTINIPASPFMQKLGFGTGVNVYLMKRSPRGLSHSPWAVKKINPICNDHYRSVYQKRLMDEAKILKSLHHPNIVGYRAFTEANDGSLCLAMEYGGEKSLNDLIEERYKASQDPFPAAIILKVALNMARGLKYLHQEKKLLHGDIKSSNVVIKGDFETIKICDVGVSLPLDENMTVTDPEACYIGTEPWKPKEAVEENGVITDKADIFAFGLTLWEMMTLSIPHINLSNDDDDEDKTFDESDFDDEAYYAALGTRPPINMEELDESYQKVIELFSVCTNEDPKDRPSAAHIVEALETDV

Variants of: B1
Conditions: with dlg1_human DLG1, Q12959
Sequence of dlg1_human DLG1, Q12959 (Q12959 whole entry, looked up): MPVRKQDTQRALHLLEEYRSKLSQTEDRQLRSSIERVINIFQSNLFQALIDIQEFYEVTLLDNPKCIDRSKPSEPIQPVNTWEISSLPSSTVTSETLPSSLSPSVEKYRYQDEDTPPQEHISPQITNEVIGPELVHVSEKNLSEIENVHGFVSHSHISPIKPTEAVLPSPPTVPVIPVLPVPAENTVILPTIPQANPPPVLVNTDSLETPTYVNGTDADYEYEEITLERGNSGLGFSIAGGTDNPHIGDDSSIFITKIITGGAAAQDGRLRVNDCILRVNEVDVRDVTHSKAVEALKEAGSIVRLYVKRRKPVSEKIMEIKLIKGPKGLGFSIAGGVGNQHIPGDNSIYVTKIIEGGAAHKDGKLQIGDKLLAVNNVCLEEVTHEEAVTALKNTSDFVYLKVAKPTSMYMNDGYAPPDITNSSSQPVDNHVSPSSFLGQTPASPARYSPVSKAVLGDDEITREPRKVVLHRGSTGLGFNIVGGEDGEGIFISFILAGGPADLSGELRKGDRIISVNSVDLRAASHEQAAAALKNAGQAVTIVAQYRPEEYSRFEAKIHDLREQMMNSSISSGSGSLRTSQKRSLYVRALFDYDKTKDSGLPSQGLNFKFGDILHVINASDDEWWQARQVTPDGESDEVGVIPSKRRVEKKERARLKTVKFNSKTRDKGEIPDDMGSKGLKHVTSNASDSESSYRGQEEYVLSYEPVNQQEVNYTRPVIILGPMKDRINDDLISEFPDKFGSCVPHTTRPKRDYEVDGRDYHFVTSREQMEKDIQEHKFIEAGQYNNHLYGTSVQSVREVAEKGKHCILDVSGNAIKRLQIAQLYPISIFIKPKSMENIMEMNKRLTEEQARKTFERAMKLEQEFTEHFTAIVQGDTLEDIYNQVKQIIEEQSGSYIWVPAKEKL

Row | Variant | effect of a mutation on the interaction
1 | MEGISNFKTPSKLSEKKKSVLCSTPTINIPASPFMQKLGFGTGVNVYLMKRSPRGLSHSPWAVKKINPICNDHYRSVYQKRLMDEAKILKSLHHPNIVGYRAFTEANDGSLCLAMEYGGEKSLNDLIEERYKASQDPFPAAIILKVALNMARGLKYLHQEKKLLHGDIKSSNVVIKGDFETIKICDVGVSLPLDENMTVTDPEACYIGTEPWKPKEAVEENGVITDKADIFAFGLTLWEMMTLSIPHINLSNDDDDEDKTFDESDFDDEAYYAALGTRPPINMEELDESYQKVIELFSVCTNEDPKDRPSAAHIVEALEADV [T320A] | decreasing interaction
2 | MEGISNFKTPSKLSEKKKSVLCSTPTINIPASPFMQKLGFGTGVNVYLMKRSPRGLSHSPWAVKKINPICNDHYRSVYQKRLMDEAKILKSLHHPNIVGYRAFTEANDGSLCLAMEYGGEKSLNDLIEERYKASQDPFPAAIILKVALNMARGLKYLHQEKKLLHGDIKSSNVVIKGDFETIKICDVGVSLPLDENMTVTDPEACYIGTEPWKPKEAVEENGVITDKADIFAFGLTLWEMMTLSIPHINLSNDDDDEDKTFDESDFDDEAYYAALGTRPPINMEELDESYQKVIELFSVCTNEDPKDRPSAAHIVEALETDA [V322A] | disrupting interaction
